Target: rabbit muscle actin (rabbit) (UniProt P68135)
Test: SPR; Biacore X100; rabbit muscle actin (10 ug/ml) covalently coupled to a CM5 chip by EDC/NHS, control lane without actin subtracted; formin fragments injected at 12.3 nM to 1 uM (1:3 serial dilution), 120 s injection, 600 s dissociation, 30 ul/min, 25 degrees; running buffer 10 mM HEPES pH 7.4, 150 mM NaCl, 3 mM EDTA, 10 mM MgCl2, 0.2 mM ADP, 0.5 mM DTT

Kd: 54.9 nM
Sequence: SYMBIOTIC FORMIN 1 (SYFO1) FH1FH2 domain (domain or fragment)
